Reference: article PMC3099715 (The Journal of Biological Chemistry, 2011)
Like-named read-outs stand apart in the source and are kept apart here. Each block holds one molecule with its values, some of them ahead of it. No end group written: not given here. fluorescein = fluorescein fluorophore covalently attached to the cysteine residue

Columns and labels:
[1] = biological target: fluorescein-labeled P5 peptide (F-P5) (chicken); assay: fluorescence polarisation
[2] = biological target: fluorescein-labeled P5 peptide (F-P5) (chicken); assay: fluorescence polarisation; remark: listed apart in the source
[3] = biological target: fluorescein-labeled Isu1 peptide (F-Isu1) (S. cerevisiae); assay: fluorescence polarisation
[4] = biological target: T1, Ssc1 (mitochondrial heat shock protein 70 of Saccharomyces cerevisiae) (S. cerevisiae, UniProt P0CS90 24-654); assay: fluorescence polarisation
[5] = biological target: T1, Ssc1 (mitochondrial heat shock protein …); assay: fluorescence polarisation; remark: listed apart in the source
[6] = biological target: T1, Ssc1 (mitochondrial heat shock protein …); assay: fluorescence polarisation; remark: listed apart in the source
[7] = biological target: T2, substrate-binding domain of Ssc1, Ssc1(418–654) (S. cerevisiae, UniProt P0CS90 418-654); assay: fluorescence polarisation
T2 sequence (looked up): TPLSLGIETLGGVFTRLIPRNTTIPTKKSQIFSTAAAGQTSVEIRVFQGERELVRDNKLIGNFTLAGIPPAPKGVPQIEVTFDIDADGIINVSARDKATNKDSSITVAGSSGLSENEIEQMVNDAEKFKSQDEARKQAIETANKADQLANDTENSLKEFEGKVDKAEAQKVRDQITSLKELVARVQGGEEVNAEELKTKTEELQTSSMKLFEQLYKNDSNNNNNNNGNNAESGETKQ

[8] = biological target: T1, Ssc1 (mitochondrial heat shock protein …); assay: fluorescence polarisation; remark: listed apart in the source
[9] = biological target: T1, Ssc1 (mitochondrial heat shock protein …); assay: pull-down

Kd [2]: 22.7 µM
Molecule: SBD_(Ssc1)-(ABCD)_(Ssc3) chimera (variable domain of the SBD of Ssc1 replaced with that of Ssc3) (domain or fragment)

koff [4]: 0.003 s⁻¹
Kd [5]: 0.231 ± 0.014 µM
Kd [6]: 30.9 ± 2.6 µM
Kd [7]: 0.264 ± 0.041 µM
Molecule: CALLLSAPRR (fluorescein fluorophore covalently attached to the cysteine residue) [fluorescein-labeled P5 peptide (F-P5)]

Kd [9]: ~1.5 µM
B1: GST-Hep1 (yeast Hep1 co-chaperone) (natural protein, yeast (S. cerevisiae), UniProt P42844 48-174, looked up)
chain: NEVKKDDKKVHLGSFKVDKPKMMIAFTCKKCNTRSSHTMSKQAYEKGTVLISCPHCKVRHLIADHLKIFHDHHVTVEQLMKANGEQVSQDVGDLEFEDIPDSLKDVLGKYAKNNSENASQLPHPSQK

Continued, molecule first:

Molecule: Ssc3 (mitochondrial Hsp70 paralog of Saccharomyces cerevisiae) (natural protein)
Kd [1]: 26.3 µM
Kd [2]: 30.1 µM
koff [2]: 0.244 s⁻¹
Kd [3]: > 90 µM

Molecule: LSLPPVKLHC(fluorescein) [fluorescein-labeled Isu1 peptide (F-Isu1)]
Kd [8]: 7.07 ± 0.872 µM
